According to the supplement of paper PMC10065799, “High-throughput profiling of sequence recognition by tyrosine kinases and SH2 domains using bacterial peptide display” (eLife, 2023):

The sequences below were run on c-Src (assay: phosphorylation enrichment, bacterial display (enrichment ratio); higher = better substrate or ligand; peptides without Tyr show the background).
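Further: 11-residue human phosphosite peptides and single-mutation variants displayed on the E. coli surface, counted by deep sequencing, each peptide's frequency after selection divided by its frequency in the unselected input library; frequency after pTyr selection over input frequency; kinase dosed for 20-30% of maximal phosphorylation in three min.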

Point of comparison: CTTIHYNFKCN [TP53_Y234_M237K_YF], phosphorylation enrichment 0.411. Against it:
- MEIHAYHKLLE [LMNA_Y376_R377H] — higher, 0.441
- SPPILYSFFLN [FCRL6_Y239_D244N_YF] — higher, 3.41
- FDDDDYDMDFV [BLM_Y296_T298M] — higher, 0.57
- PAQAAYQKVVA [HBB_Y131_V127A] — lower, 0.375
- ERLLDYTRTVQ [INPP5E_Y439] — higher, 0.493
- LPEHPYHSRPR [NDUFA8_Y142_N140H] — higher, 1.27
- GTFVIYVRFGG [FLNB_Y1687_YF] — higher, 0.465
- SGRRRYTIAAL [TTR_Y125_P122R] — higher, 0.736
- QLYGPYLRIHA [BSCL2_Y213_A212P] — higher, 2.52
- VIVRMYDFHVL [RPF2_Y109_G106V_YF] — higher, 0.473
- SARFRYLLAEK [LDHB_Y173_M175L] — higher, 0.515
- AYGNLYGSRKQ [YIPF7_Y59] — higher, 2.08
- SAAAIYMVRHP [PMP22_Y117_T118M] — higher, 5.44
- NFRPGYNNFFN [USH2A_Y467_YF] — higher, 0.64
- PYADPYYDYEI [ZC3H18_Y371] — higher, 8.11
- DFLEKYFKFGC [NNMT_Y24_S29C_YF] — higher, 0.549
- LDAFIYDAAVL [GRIN2A_Y730] — higher, 6.55
- ATDLAYFLVCK [ASL_Y375_R379C_YF] — higher, 0.655
- SKGYAYVHFDS [PABPC5_Y149] — higher, 0.479
- KVPAIYGVGTR [CPS1_Y162_D165G] — higher, 2.44
- ESMNTYLQTSP [NAT1_Y208] — higher, 0.477
- EEQKKNFNAMK [SCN5A_Y1494_Y1494N_YF] — lower, 0.385
- GFVEDYRPPFF [ACVRL1_Y421_I417F_YF] — higher, 0.501
- QYPDIYAREEV [CRX_Y67_V66I] — higher, 1.54
- TVQVAYFTVMM [SPATA17_Y83_M86V_YF] — higher, 0.666
- SLMNQYVNKKF [RAB7A_Y28] — lower, 0.342
- HVIKLYGACSQ [RET_Y791] — higher, 0.713
- TSSAGYRRTPS [ABI1_Y333_G331A] — higher, 0.444

Each sequence was assayed against EPHB2 (UniProt P29323) in the same assay as above.
Sequence of EPHB2 (P29323 whole entry, looked up): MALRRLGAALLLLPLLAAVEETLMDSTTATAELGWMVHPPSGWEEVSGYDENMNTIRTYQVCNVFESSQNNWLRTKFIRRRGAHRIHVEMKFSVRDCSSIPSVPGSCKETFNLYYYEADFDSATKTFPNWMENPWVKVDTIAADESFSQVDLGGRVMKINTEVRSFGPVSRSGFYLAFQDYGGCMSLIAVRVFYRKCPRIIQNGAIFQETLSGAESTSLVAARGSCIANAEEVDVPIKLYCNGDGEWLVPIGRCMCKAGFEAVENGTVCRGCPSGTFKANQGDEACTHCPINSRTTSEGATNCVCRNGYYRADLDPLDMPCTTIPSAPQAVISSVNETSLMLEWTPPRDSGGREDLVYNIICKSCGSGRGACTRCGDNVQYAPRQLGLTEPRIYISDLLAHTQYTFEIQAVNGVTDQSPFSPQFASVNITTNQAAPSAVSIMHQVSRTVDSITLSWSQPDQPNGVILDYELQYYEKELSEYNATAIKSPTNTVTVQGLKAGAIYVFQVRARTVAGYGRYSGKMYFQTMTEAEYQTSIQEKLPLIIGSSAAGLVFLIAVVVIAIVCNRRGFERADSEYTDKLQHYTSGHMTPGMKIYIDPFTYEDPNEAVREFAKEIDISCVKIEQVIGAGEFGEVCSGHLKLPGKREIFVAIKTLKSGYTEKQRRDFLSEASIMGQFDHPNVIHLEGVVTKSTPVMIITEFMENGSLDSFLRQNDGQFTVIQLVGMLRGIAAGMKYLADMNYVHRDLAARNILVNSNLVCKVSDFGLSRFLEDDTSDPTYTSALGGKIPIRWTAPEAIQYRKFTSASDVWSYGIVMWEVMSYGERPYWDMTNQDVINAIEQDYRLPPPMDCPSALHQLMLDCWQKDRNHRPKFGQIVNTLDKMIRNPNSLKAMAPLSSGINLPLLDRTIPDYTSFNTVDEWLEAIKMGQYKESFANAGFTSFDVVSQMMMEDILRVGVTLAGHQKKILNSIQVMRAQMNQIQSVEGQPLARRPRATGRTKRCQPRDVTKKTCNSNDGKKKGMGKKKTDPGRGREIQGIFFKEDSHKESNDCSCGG

Point of comparison: ERLLDYTRTVQ [INPP5E_Y439], phosphorylation enrichment 0.451. Against it:
- MEIHAYHKLLE [LMNA_Y376_R377H] — higher, 0.588
- SPPILYSFFLN [FCRL6_Y239_D244N_YF] — higher, 2.36
- FDDDDYDMDFV [BLM_Y296_T298M] — higher, 0.612
- PAQAAYQKVVA [HBB_Y131_V127A] — higher, 0.67
- LPEHPYHSRPR [NDUFA8_Y142_N140H] — higher, 1.57
- GTFVIYVRFGG [FLNB_Y1687_YF] — higher, 0.49
- CTTIHYNFKCN [TP53_Y234_M237K_YF] — lower, 0.392
- SGRRRYTIAAL [TTR_Y125_P122R] — higher, 0.581
- QLYGPYLRIHA [BSCL2_Y213_A212P] — higher, 2.03
- VIVRMYDFHVL [RPF2_Y109_G106V_YF] — higher, 1.55
- SARFRYLLAEK [LDHB_Y173_M175L] — higher, 0.477
- AYGNLYGSRKQ [YIPF7_Y59] — lower, 0.3
- SAAAIYMVRHP [PMP22_Y117_T118M] — higher, 1.82
- NFRPGYNNFFN [USH2A_Y467_YF] — higher, 0.483
- PYADPYYDYEI [ZC3H18_Y371] — higher, 4.58
- DFLEKYFKFGC [NNMT_Y24_S29C_YF] — higher, 0.545
- LDAFIYDAAVL [GRIN2A_Y730] — higher, 3
- ATDLAYFLVCK [ASL_Y375_R379C_YF] — higher, 0.617
- SKGYAYVHFDS [PABPC5_Y149] — higher, 0.561
- KVPAIYGVGTR [CPS1_Y162_D165G] — lower, 0.391
- ESMNTYLQTSP [NAT1_Y208] — higher, 0.511
- EEQKKNFNAMK [SCN5A_Y1494_Y1494N_YF] — higher, 0.494
- GFVEDYRPPFF [ACVRL1_Y421_I417F_YF] — lower, 0.444
- QYPDIYAREEV [CRX_Y67_V66I] — higher, 1.02
- TVQVAYFTVMM [SPATA17_Y83_M86V_YF] — higher, 0.758
- SLMNQYVNKKF [RAB7A_Y28] — lower, 0.373
- HVIKLYGACSQ [RET_Y791] — higher, 0.768
- TSSAGYRRTPS [ABI1_Y333_G331A] — higher, 0.497

The sequences below were run against Hck (UniProt P08631) in the same assay as above.
Sequence of Hck (P08631 whole entry, looked up): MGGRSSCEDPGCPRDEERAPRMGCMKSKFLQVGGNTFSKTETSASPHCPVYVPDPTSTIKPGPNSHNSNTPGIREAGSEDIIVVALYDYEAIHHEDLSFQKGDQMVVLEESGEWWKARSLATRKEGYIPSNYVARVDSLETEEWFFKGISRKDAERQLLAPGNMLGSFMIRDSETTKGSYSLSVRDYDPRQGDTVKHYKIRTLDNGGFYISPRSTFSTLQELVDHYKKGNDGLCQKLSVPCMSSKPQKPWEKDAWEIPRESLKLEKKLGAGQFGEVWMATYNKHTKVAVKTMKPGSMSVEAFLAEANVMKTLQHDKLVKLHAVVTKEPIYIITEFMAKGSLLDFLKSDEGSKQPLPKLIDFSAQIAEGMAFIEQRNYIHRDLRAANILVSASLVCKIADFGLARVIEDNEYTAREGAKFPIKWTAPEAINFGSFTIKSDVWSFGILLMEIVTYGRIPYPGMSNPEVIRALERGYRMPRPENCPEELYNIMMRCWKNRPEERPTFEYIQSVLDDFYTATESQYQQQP

Point of comparison: SLMNQYVNKKF [RAB7A_Y28], phosphorylation enrichment 0.427. Against it:
- MEIHAYHKLLE [LMNA_Y376_R377H] — higher, 0.552
- SPPILYSFFLN [FCRL6_Y239_D244N_YF] — higher, 3.03
- FDDDDYDMDFV [BLM_Y296_T298M] — higher, 0.56
- PAQAAYQKVVA [HBB_Y131_V127A] — higher, 0.542
- ERLLDYTRTVQ [INPP5E_Y439] — higher, 0.439
- LPEHPYHSRPR [NDUFA8_Y142_N140H] — higher, 1.9
- GTFVIYVRFGG [FLNB_Y1687_YF] — higher, 0.433
- CTTIHYNFKCN [TP53_Y234_M237K_YF] — higher, 0.476
- SGRRRYTIAAL [TTR_Y125_P122R] — higher, 0.517
- QLYGPYLRIHA [BSCL2_Y213_A212P] — higher, 2.83
- VIVRMYDFHVL [RPF2_Y109_G106V_YF] — higher, 0.488
- SARFRYLLAEK [LDHB_Y173_M175L] — higher, 0.508
- AYGNLYGSRKQ [YIPF7_Y59] — higher, 6.04
- SAAAIYMVRHP [PMP22_Y117_T118M] — higher, 7.71
- NFRPGYNNFFN [USH2A_Y467_YF] — higher, 0.466
- PYADPYYDYEI [ZC3H18_Y371] — higher, 3.13
- DFLEKYFKFGC [NNMT_Y24_S29C_YF] — lower, 0.417
- LDAFIYDAAVL [GRIN2A_Y730] — higher, 7.32
- ATDLAYFLVCK [ASL_Y375_R379C_YF] — higher, 0.674
- SKGYAYVHFDS [PABPC5_Y149] — higher, 0.53
- KVPAIYGVGTR [CPS1_Y162_D165G] — higher, 5.68
- ESMNTYLQTSP [NAT1_Y208] — higher, 0.655
- EEQKKNFNAMK [SCN5A_Y1494_Y1494N_YF] — higher, 0.512
- GFVEDYRPPFF [ACVRL1_Y421_I417F_YF] — higher, 0.525
- QYPDIYAREEV [CRX_Y67_V66I] — higher, 2.6
- TVQVAYFTVMM [SPATA17_Y83_M86V_YF] — higher, 0.61
- HVIKLYGACSQ [RET_Y791] — higher, 0.661
- TSSAGYRRTPS [ABI1_Y333_G331A] — higher, 0.446

The sequences below were run against FGFR1 (UniProt P11362) in the same assay as above.
Sequence of FGFR1 (P11362 whole entry, looked up): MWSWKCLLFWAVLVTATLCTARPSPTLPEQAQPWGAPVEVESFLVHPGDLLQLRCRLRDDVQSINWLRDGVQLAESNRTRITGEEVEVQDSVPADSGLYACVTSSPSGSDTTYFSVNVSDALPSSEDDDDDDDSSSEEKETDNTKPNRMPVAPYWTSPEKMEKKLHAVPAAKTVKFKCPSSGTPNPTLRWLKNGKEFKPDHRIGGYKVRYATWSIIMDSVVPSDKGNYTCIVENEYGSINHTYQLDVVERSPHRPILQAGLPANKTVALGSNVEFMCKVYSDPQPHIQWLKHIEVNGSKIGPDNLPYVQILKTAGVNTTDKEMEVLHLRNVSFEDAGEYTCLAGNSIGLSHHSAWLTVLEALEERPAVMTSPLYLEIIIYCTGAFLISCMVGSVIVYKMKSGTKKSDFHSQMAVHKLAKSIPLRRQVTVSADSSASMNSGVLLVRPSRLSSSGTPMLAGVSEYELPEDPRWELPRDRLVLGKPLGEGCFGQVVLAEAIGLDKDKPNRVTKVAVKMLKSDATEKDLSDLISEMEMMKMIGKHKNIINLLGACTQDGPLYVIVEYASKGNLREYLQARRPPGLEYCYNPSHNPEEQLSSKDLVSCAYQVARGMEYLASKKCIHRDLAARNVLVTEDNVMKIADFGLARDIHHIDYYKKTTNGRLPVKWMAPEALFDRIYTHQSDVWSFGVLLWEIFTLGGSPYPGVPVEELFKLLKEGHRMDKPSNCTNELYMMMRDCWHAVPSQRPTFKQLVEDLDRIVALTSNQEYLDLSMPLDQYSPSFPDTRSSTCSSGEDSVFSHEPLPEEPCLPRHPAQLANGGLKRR

Point of comparison: KVPAIYGVGTR [CPS1_Y162_D165G], phosphorylation enrichment 0.362. Against it:
- MEIHAYHKLLE [LMNA_Y376_R377H] — higher, 0.474
- SPPILYSFFLN [FCRL6_Y239_D244N_YF] — higher, 1.41
- FDDDDYDMDFV [BLM_Y296_T298M] — higher, 0.55
- PAQAAYQKVVA [HBB_Y131_V127A] — higher, 0.544
- ERLLDYTRTVQ [INPP5E_Y439] — higher, 0.518
- LPEHPYHSRPR [NDUFA8_Y142_N140H] — higher, 1.02
- GTFVIYVRFGG [FLNB_Y1687_YF] — higher, 0.52
- CTTIHYNFKCN [TP53_Y234_M237K_YF] — higher, 0.472
- SGRRRYTIAAL [TTR_Y125_P122R] — higher, 0.547
- QLYGPYLRIHA [BSCL2_Y213_A212P] — lower, 0.344
- VIVRMYDFHVL [RPF2_Y109_G106V_YF] — higher, 0.462
- SARFRYLLAEK [LDHB_Y173_M175L] — higher, 0.439
- AYGNLYGSRKQ [YIPF7_Y59] — higher, 0.484
- SAAAIYMVRHP [PMP22_Y117_T118M] — higher, 0.425
- NFRPGYNNFFN [USH2A_Y467_YF] — higher, 0.519
- PYADPYYDYEI [ZC3H18_Y371] — higher, 20.2
- DFLEKYFKFGC [NNMT_Y24_S29C_YF] — higher, 0.497
- LDAFIYDAAVL [GRIN2A_Y730] — higher, 0.879
- ATDLAYFLVCK [ASL_Y375_R379C_YF] — higher, 1.16
- SKGYAYVHFDS [PABPC5_Y149] — higher, 0.632
- ESMNTYLQTSP [NAT1_Y208] — higher, 0.584
- EEQKKNFNAMK [SCN5A_Y1494_Y1494N_YF] — higher, 0.38
- GFVEDYRPPFF [ACVRL1_Y421_I417F_YF] — higher, 0.537
- QYPDIYAREEV [CRX_Y67_V66I] — higher, 1.23
- TVQVAYFTVMM [SPATA17_Y83_M86V_YF] — higher, 0.729
- SLMNQYVNKKF [RAB7A_Y28] — higher, 0.381
- HVIKLYGACSQ [RET_Y791] — higher, 0.627
- TSSAGYRRTPS [ABI1_Y333_G331A] — higher, 0.499
